Reference: paper doi:10.1101/2024.10.02.616340 (bioRxiv, 2024)

How the values were obtained:
[1] = target: yeast Mcm3 (subunit of CMG) (budding yeast, UniProt P24279 1-971); experiment: cryo-EM structure
[2] = target: T1, yeast Mcm4 (subunit of CMG) (budding yeast, UniProt P30665 1-933); experiment: cryo-EM structure
T1 sequence: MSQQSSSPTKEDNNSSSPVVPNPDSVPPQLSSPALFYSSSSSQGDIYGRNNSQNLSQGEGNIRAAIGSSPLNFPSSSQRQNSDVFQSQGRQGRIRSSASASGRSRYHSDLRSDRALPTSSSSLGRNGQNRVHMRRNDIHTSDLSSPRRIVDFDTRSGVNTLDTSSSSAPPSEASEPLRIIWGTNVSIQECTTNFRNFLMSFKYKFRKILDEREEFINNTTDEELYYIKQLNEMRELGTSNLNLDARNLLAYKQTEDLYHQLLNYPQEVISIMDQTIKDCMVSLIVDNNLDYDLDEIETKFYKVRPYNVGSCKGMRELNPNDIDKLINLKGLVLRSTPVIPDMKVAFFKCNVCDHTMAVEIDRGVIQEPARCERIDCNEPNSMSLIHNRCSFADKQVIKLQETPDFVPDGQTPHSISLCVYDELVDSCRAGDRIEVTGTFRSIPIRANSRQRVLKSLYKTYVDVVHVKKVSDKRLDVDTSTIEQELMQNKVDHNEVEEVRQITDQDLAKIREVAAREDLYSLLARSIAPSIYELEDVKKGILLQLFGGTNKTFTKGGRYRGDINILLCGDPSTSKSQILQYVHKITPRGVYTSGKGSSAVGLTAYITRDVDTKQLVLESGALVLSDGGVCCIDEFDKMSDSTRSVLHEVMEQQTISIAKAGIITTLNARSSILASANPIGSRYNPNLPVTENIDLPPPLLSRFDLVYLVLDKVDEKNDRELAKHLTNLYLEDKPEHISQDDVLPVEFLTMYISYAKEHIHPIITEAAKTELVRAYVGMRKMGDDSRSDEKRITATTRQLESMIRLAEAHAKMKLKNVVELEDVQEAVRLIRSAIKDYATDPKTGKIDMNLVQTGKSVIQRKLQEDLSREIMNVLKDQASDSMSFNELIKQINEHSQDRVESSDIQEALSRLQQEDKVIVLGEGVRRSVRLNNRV

yeast Mcm3 (subunit of CMG), sequence (P24279 whole entry): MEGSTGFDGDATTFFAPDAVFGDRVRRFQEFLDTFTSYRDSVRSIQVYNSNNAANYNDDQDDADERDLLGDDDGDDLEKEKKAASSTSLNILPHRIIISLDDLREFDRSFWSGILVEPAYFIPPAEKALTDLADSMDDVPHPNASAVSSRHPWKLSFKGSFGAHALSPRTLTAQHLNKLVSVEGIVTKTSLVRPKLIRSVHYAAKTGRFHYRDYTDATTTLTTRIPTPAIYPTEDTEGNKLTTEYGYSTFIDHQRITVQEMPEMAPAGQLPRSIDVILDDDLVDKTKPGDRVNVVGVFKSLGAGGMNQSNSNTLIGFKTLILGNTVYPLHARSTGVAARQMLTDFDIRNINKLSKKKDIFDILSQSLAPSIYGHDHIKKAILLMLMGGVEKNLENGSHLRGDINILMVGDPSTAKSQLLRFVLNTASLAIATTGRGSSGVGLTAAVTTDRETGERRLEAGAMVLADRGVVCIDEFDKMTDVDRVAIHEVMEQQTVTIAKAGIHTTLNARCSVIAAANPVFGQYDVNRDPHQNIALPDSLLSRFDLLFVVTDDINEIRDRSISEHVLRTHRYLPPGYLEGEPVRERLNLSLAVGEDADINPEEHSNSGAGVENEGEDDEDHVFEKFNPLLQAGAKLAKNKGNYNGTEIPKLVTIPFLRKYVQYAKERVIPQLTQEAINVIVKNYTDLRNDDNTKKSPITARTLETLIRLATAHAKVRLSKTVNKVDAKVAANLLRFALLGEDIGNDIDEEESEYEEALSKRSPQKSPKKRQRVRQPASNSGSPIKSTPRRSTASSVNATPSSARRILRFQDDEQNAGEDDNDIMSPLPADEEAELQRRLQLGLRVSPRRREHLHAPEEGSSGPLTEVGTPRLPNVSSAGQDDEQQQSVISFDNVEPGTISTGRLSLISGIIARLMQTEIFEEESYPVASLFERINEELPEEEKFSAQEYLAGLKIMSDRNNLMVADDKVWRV

B1: yeast Mcm7 (subunit of CMG) (natural protein)
chain: MSAALPSIQLPVDYNNLFNEITDFLVTFKQDTLSSDATRNENEDENLDAENIEQHLLEKGPKYMAMLQKVANRELNSVIIDLDDILQYQNEKFLQGTQADDLVSAIQQNANHFTELFCRAIDNNMPLPTKEIDYKDDVLDVILNQRRLRNERMLSDRTNEIRSENLMDTTMDPPSSMNDALREVVEDETELFPPNLTRRYFLYFKPLSQNCARRYRKKAISSKPLSVRQIKGDFLGQLITVRGIITRVSDVKPAVEVIAYTCDQCGYEVFQEVNSRTFTPLSECTSEECSQNQTKGQLFMSTRASKFSAFQECKIQELSQQVPVGHIPRSLNIHVNGTLVRSLSPGDIVDVTGIFLPAPYTGFKALKAGLLTETYLEAQFVRQHKKKFASFSLTSDVEERVMELITSGDVYNRLAKSIAPEIYGNLDVKKALLLLLVGGVDKRVGDGMKIRGDINVCLMGDPGVAKSQLLKAICKISPRGVYTTGKGSSGVGLTAAVMKDPVTDEMILEGGALVLADNGICCIDEFDKMDESDRTAIHEVMEQQTISISKAGINTTLNARTSILAAANPLYGRYNPRLSPLDNINLPAALLSRFDILFLMLDIPSRDDDEKLAEHVTYVHMHNKQPDLDFTPVEPSKMREYIAYAKTKRPVMSEAVNDYVVQAYIRLRQDSKREMDSKFSFGQATPRTLLGIIRLSQALAKLRLADMVDIDDVEEALRLVRVSKESLYQETNKSKEDESPTTKIFTIIKKMLQETGKNTLSYENIVKTVRLRGFTMLQLSNCIQEYSYLNVWHLINEGNTLKFVDDGTMDTDQEDSLVSTPKLAPQTTASANVSAQDSDIDLQDA
B1: binds [1]; binds [2].
